Source: patent publication US20230301998A1 (SANFORD BURNHAM PREBYS MEDICAL DISCOVERY INSTITUTE, published 2023)

T1: Flag-tagged SHARPIN (human, UniProt Q9H0F6 1-387)
T1 construct: also called Flag-SHARPIN; not shown: FLAG tag
T1 sequence (looked up): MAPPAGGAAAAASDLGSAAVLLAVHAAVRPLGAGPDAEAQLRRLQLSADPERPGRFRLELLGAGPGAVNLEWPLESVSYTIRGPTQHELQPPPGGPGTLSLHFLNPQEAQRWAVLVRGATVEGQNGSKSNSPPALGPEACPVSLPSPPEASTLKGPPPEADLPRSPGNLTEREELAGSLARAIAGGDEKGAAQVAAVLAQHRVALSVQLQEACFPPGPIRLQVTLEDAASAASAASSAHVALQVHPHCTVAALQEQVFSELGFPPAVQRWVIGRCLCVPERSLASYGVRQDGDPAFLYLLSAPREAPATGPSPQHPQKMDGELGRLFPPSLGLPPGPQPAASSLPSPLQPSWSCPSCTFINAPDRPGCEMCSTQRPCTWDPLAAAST

T2: Gamma-interferon-inducible protein 16 (IFI16) (human, UniProt Q16666 1-785)
T2 construct: Endogenous protein in WM115 / A375
T2 sequence: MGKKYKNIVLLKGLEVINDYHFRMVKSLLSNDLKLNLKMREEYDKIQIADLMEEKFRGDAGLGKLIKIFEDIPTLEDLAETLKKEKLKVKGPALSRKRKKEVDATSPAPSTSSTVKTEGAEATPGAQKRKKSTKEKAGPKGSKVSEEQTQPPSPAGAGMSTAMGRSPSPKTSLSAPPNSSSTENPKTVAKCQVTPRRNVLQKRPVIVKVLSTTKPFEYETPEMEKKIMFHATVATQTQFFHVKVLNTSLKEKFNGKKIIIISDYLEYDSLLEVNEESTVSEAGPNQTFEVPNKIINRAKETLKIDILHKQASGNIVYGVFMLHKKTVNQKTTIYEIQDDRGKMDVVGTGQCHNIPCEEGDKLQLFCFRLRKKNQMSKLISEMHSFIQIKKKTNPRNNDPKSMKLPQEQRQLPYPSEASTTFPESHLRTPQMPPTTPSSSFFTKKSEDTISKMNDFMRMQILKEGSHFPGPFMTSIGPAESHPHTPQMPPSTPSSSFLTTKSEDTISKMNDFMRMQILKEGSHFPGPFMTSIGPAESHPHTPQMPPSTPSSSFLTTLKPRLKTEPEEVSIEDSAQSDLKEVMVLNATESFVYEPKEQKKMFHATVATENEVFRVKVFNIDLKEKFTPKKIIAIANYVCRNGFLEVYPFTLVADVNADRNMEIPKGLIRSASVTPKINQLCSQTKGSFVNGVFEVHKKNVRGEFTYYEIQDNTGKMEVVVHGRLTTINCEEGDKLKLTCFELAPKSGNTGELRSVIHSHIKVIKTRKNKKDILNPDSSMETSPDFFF

T3: Interferon-activable protein 204 (Mus musculus) (IFI204) (Mus musculus, UniProt P0DOV2 1-619)
T3 construct: also called IF204
T3 sequence: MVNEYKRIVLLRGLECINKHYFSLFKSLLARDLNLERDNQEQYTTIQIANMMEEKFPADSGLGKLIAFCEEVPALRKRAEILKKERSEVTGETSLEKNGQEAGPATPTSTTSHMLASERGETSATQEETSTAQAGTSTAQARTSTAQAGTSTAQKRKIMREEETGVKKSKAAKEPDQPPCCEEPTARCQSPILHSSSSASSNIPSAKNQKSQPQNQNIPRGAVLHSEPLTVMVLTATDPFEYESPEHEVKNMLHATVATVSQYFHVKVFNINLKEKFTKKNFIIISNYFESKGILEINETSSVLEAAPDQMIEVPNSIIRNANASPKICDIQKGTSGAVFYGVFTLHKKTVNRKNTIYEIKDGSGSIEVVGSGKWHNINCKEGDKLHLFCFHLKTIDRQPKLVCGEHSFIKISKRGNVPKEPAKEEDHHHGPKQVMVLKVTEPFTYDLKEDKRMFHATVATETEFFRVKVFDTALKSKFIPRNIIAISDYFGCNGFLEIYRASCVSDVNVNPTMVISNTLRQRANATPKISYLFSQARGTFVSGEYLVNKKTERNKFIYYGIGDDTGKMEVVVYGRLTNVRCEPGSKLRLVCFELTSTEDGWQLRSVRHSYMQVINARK

B1: MYL128 (other, human, UniProt O14950 1-172, looked up)
chain: MSSKKAKTKTTKKRPQRATSNVFAMFDQSQIQEFKEAFNMIDQNRDGFIDKEDLHDMLASLGKNPTDAYLDAMMNEAPGPINFTMFLTMFGEKLNGTDPEDVIRNAFACFDEEATGTIQEDYLRELLTTMGDRFTDEEVDELYREAPIDKKGNFNYIEFTRILKHGAKDKDD
notes: endogenous protein co-purified from WM115 lysate; also called MYL12B
B2: SLC25A4 (other, human, UniProt P12235 2-298, looked up)
chain: GDHAWSFLKDFLAGGVAAAVSKTAVAPIERVKLLLQVQHASKQISAEKQYKGIIDCVVRIPKEQGFLSFWRGNLANVIRYFPTQALNFAFKDKYKQLFLGGVDRHKQFWRYFAGNLASGGAAGATSLCFVYPLDFARTRLAADVGKGAAQREFHGLGDCIIKIFKSDGLRGLYQGFNVSVQGIIIYRAAYFGVYDTAKGMLPDPKNVHIFVSWMIAQSVTAVAGLVSYPFDTVRRRMMMQSGRKGADIMYTGTVDCWRKIAKDEGAKAFFKGAWSNVLRGMGGAFVLVLYDEIKKYV
notes: endogenous protein co-purified from WM115 lysate
B3: SHARPIN (endogenous, human melanoma cells WM115 / A375) (other, UniProt Q9H0F6 1-387, looked up)
chain: T1 sequence (looked up)
B4: SHARPIN (endogenous, murine B16 melanoma cells) (other, mouse, UniProt Q91WA6 1-380, looked up)
chain: MSPPAGGAAVAADPASPVVLLAVHAAVRPLGAGQDAEAQPRKLQLIADPERPGRFRLGLLGTEPGAVSLEWPLEAICYTVRGPNQHELQPPPGGPGTFSVHFLDPEEAQQWAALVRDATAEGQNGSGSPAPAPAPAMCPISPPCSSMAQIPKATQPEVDLPQSSGNFKKEELATRLSQAIAGGDEKAAAQVAAVLAQHHVALNVQLMEAWFPPGPIRLQVTVEDATSVLSSSSSAHVSLKIHPHCSIAALQDQVFSEFGFPPAVQRWVIGRCLCMPERSLASYGVSQDGDPAFLYLLSAPREVSGQSLQNSKMDRKLGLFPQSLGLPHDLQPSSSSLPSPSQPGWSCPSCTFINASNRPGCEMCSTQRPCAWDPLAAAST
B5: GSTP1 (other, human, UniProt P09211 2-210, looked up)
chain: PPYTVVYFPVRGRCAALRMLLADQGQSWKEEVVTVETWQEGSLKASCLYGQLPKFQDGDLTLYQSNTILRHLGRTLGLYGKDQQEAALVDMVNDGVEDLRCKYISLIYTNYEAGKDDYVKALPGQLKPFETLLSQNQGGKTFIVGDQISFADYNLLDLLLIHEVLAPGCLDAFPLLSAYVGRLSARPKLKAFLASPEYVNLPINGNGKQ
notes: as for B2
B6: MYL12A (other, human, UniProt P19105 1-171, looked up)
chain: MSSKRTKTKTKKRPQRATSNVFAMFDQSQIQEFKEAFNMIDQNRDGFIDKEDLHDMLASLGKNPTDEYLDAMMNEAPGPINFTMFLTMFGEKLNGTDPEDVIRNAFACFDEEATGTIQEDYLRELLTTMGDRFTDEEVDELYREAPIDKKGNFNYIEFTRILKHGAKDKDD
notes: as for B2

Columns and labels:
[1] = molecular target: T1, Flag-tagged SHARPIN; assay: Flag IP of Flag-SHARPIN from WM115 lysate, on-bead tryptic digestion, LC/MS-MS
Method: To identify SHARPIN-interacting proteins, WM115 cells were transfected with Flag-tagged SHARPIN or control empty plasmid. Cell lysates were prepared using 1% Triton X-100 buffer [50 mM Tris-HCl, pH7.4, 1% (v/v) Triton X-100, 150 mM NaCl, 1 mM EDTA, and protease and phosphatase inhibitor cocktails (Thermo Fisher Scientific)]. Lysates were pre-cleared with protein A/G beads (Santa Cruz Biotechnology) for 1 h at 4° C. followed by immunoprecipitation using FLAG-M2-agarose beads (Sigma-Aldrich) overnight at 4° C. Beads were then washed with lysis buffer and TBS containing lx protease inhibitor cocktail before being subjected to on-bead tryptic digestion followed by mass spectrometry. In Vitro Methylation Assay.

[2] = molecular target: T2, Gamma-interferon-inducible protein 16 …; assay: co-immunoprecipitation and immunoblot, human melanoma cell lysates (FIGS. 8C, 10C)
[3] = molecular target: T3, Interferon-activable protein 204 (Mus …); assay: co-immunoprecipitation and immunoblot, B16 cell lysates (FIG. 8D)
Method: FIG. 8D depicts B16 cells were treated with vehicle (DMSO) or PRMT5 inhibitor (PRMT5i; EPZ015666, 10 μM) for 48. IP followed by IB of B16 cells lysates (1.5 mg) was performed with the indicated antibodies. SYM10 indicates anti-symmetric dimethyl arginine antibody (Millipore). FIGS. 8E and 8F depict A375 (FIG. 8E) or B16 (FIG. 8F) cells treated with vehicle or a PRMT5 inhibitor (EPZ015666) as above before lysates [A375 (1.0 mg), B16 (2.5 mg)] were prepared and subjected to IP followed by immunoblotting with indicated antibodies. FIG. 8G depicts B16 cells stably expressing indicated constructs were treated 24 h with DMSO or PRMT5i before lysates were IP'ed with V5 antibody and immunoblotted with indicated antibodies.
Immunoblotting was performed using standard protocols. Melanoma cells were lysed by incubation in RIPA buffer [50 mM Tris-HC1, pH7.4, 1% (v/v) NP40, 0.1% (w/v) sodium deoxycholate, 0.1% (w/v) sodium dodecyl sulfate, 150 mM NaCl, 1mM EDTA, and protease and phosphatase inhibitor cocktails (Thermo Fisher Scientific)] and freeze-thawed 3 times. For immunoprecipitation HEK293T cells were lysed in 1% Triton X-100 buffer [50 mM Tris-HC1, pH7.4, 1% (v/v) Triton X-100, 150 mM NaCl, 1 mM EDTA, and protease and phosphatase inhibitor cocktails (Thermo Fisher Scientific)] and freeze-thawed 3 times. […]

Binder | binding result [1] | other results
B1 | binds | –
B2 | binds | –
B3 | – | binding result [2]: binds
B4 | – | binding result [3]: binds
B5 | binds | –
B6 | binds | –
